Experimental data published in patent EP2649983A1, “Compounds which inhibit neuronal exocytosis (II)” (Lipotec, S.A., priority 2012, dated 2013).
Non-standard residues stand in square brackets, D forms with d. *: point of attachment. Met(O2) = CS(=O)(=O)CC[C@H](N)C(=O)O; Palmitoyl = CCCCCCCCCCCCCCCC(=O)*; NHhexadecyl = CCCCCCCCCCCCCCCCN*; Met(O) = CS(=O)CC[C@H](N)C(=O)O; Myristoyl = CCCCCCCCCCCCCC(=O)*

B1: Ac-SEQ ID NO:1-NH2 (peptide)
peptide: Ac-EHLKQWM-NH2
B2: Palm-SEQ ID NO:1-NH2 (peptide)
peptide: Palmitoyl-EHLKQWM-NH2
B3: Ac-SEQ ID NO:22-NH2 (peptide)
peptide: Ac-DHLKKWM-NH2
B4: Ac-SEQ ID NO:8-NH2 (peptide)
peptide: Ac-EHLKKWM-NH2
B5: Ac-SEQ ID NO:12-NH2 (peptide)
peptide: Ac-QHLKEWM-NH2
B6: Ac-SEQ ID NO:14-NH2 (peptide)
peptide: Ac-EDLKRWM-NH2
B7: Ac-SEQ ID NO:31-NH2 (peptide)
peptide: Ac-NHLKNWM-NH2
B8: Palm-SEQ ID NO:34-NH2 (peptide)
peptide: Palmitoyl-DHFLNWM-NH2
B9: Ac-SEQ ID NO:24-NH2 (peptide)
peptide: Ac-DHFQQRM-NH2
B10: Palm-SEQ ID NO:25-NH2 (peptide)
peptide: Palmitoyl-DHFLDWM-NH2
B11: Ac-SEQ ID NO:61-NH2 (peptide)
peptide: Ac-DHFLDW[Met(O2)]-NH2
B12: Palm-SEQ ID NO:14-NH2 (peptide)
peptide: Palmitoyl-EDLKRWM-NH2
B13: Palm-SEQ ID NO:15-NH2 (peptide)
peptide: Palmitoyl-NHFLNWM-NH2
B14: Ac-SEQ ID NO:56-NH2 (peptide)
peptide: Ac-DHFLDW[Met(O)]-NH2
B15: Ac-SEQ ID NO:23-NH2 (peptide)
peptide: Ac-NDLKDWM-NH2
B16: Ac-SEQ ID NO:1-OH (peptide)
peptide: Ac-EHLKQWM-OH
B17: Palm-SEQ ID NO:24-NH2 (peptide)
peptide: Palmitoyl-DHFQQRM-NH2
B18: Ac-SEQ ID NO:15-NH2 (peptide)
peptide: Ac-NHFLNWM-NH2
B19: Ac-SEQ ID NO:25-NH2 (peptide)
peptide: Ac-DHFLDWM-NH2
B20: Ac-SEQ ID NO:3-NH2 (peptide)
peptide: Ac-QHLHNVM-NH2
B21: H-SEQ ID NO:1-NH2 (peptide)
peptide: H-EHLKQWM-NH2
B22: Ac-SEQ ID NO:14-NH-(CH2)15-CH3 (peptide)
peptide: Ac-EDLKRWM-NHhexadecyl
B23: Ac-SEQ ID NO:2-NH2 (peptide)
peptide: Ac-QDFLHWM-NH2
B24: Palm-SEQ ID NO:3-NH2 (peptide)
peptide: Palmitoyl-QHLHNVM-NH2
B25: Ac-SEQ ID NO:30-NH2 (peptide)
peptide: Ac-EHFLQWM-NH2
B26: Ac-SEQ ID NO:34-NH2 (peptide)
peptide: Ac-DHFLNWM-NH2
B27: Ac-SEQ ID NO:32-NH2 (peptide)
peptide: Ac-NHLKHWM-NH2
B28: Ac-SEQ ID NO:13-NH2 (peptide)
peptide: Ac-RHFLQWM-NH2
B29: Ac-SEQ ID NO:27-NH2 (peptide)
peptide: Ac-QHLKNWM-NH2
B30: Myr-SEQ ID NO:15-NH2 (peptide)
peptide: Myristoyl-NHFLNWM-NH2

Target: SNARE complex (VAMP, syntaxin and SNAP-25 bound to GST) (UniProt P60880)
Sequence (P60880 whole entry, one chain of several): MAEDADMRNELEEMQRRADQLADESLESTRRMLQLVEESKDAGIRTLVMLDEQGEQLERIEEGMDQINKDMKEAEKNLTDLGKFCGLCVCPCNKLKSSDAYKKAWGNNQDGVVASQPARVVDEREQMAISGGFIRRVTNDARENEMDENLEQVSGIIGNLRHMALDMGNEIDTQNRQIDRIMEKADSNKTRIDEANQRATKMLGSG
Experiment: competition ELISA: VAMP on plate, SNAP-25-GST + syntaxin, anti-GST detection; compound at 0.5 mM

Binder	% inhibition formation SNARE complex
B1	33%
B2	21%
B3	18%
B4	11%
B5	20%
B6	43%
B7	26%
B8	19%
B9	41%
B10	24%
B11	8%
B12	18%
B13	18%
B14	16%
B15	10%
B16	29%
B17	36%
B18	48%
B19	40%
B20	31%
B21	30%
B22	11%
B23	26%
B24	20%
B25	24%
B26	27%

Target: SNARE complex (VAMP, syntaxin and SNAP-25 bound to GST) (UniProt P60880)
Experiment: competition ELISA: VAMP on plate, SNAP-25-GST + syntaxin, anti-GST detection; compound at 2.5 mM

Binder	% inhibition formation SNARE complex
B1	63%
B2	47%
B3	72%
B4	44%
B5	71%
B6	67%
B7	59%
B8	51%
B9	55%
B10	53%
B11	26%
B12	42%
B27	19%
B28	20%
B13	21%
B14	64%
B15	60%
B16	59%
B17	44%
B29	14%
B18	42%
B19	71%
B20	64%
B21	58%
B22	35%
B23	64%
B24	51%
B25	71%
B30	19%
B26	85%

Target: SNARE complex (VAMP, syntaxin and SNAP-25) (UniProt P60880)
Sequence (P60880 whole entry, one chain of several): as above
Experiment: SDS-PAGE of SNARE complex: VAMP + syntaxin + compound, then SNAP-25; image analysis; compound at 1 mM

Binder	% inhibition formation SNARE complex
B1	59%
B2	26%
B6	83%
B9	48%
B10	36%
B11	44%
B12	41%
B13	22%
B14	40%
B17	17%
B18	50%
B19	83%
B22	43%
B23	37%
B30	23%
B26	14%

Target: SNARE complex (VAMP, syntaxin and SNAP-25) (UniProt P60880)
Experiment: SDS-PAGE of SNARE complex: VAMP + syntaxin + compound, then SNAP-25; image analysis; compound at 5 mM

Binder	% inhibition formation SNARE complex
B1	100%
B2	72%
B6	100%
B9	100%
B10	85%
B11	89%
B12	93%
B13	74%
B14	91%
B17	66%
B18	100%
B19	100%
B22	85%
B23	80%
B30	76%
B26	59%
